Assay results taken from the RNAGym collection of RNA variant scans (doi:10.7554/elife.90254).

B1: LINE1-full (parent)
chain: UACGUAGGUGGUUUUCCCCUGAUAGUGCUAAGGGGGCCUGGAAGUUUGGACUGGGCAGAGCUCAACACAGCGUGGCAAAGUGGCUGUGGCUAGACUGCCUCUCUGGAUUCCUCGUCACUCAGCAGGGCAUCUCUGAGAGAAAUGCC

Variants of: B1
Assay: self-cleavage, relative activity (ratio to wild type); higher = more cleavage; in vitro, sequencing; the parent is a self-cleaving ribozyme

Variant	self-cleavage
UACGUAGGUGGUUUUCCCCUGAUAGUGCUAAGGGGGCCUGGAAGUUUGGACUGGGCAGAGCUCAACACAGCGUGGCAAAGUGGCUGUGGCUAGACUGCCUCACUGGAUUCCUCGUCACUCAGCAGGGCGUCUCUGAGAGAAAUGCC [U102A A129G]	1.72
UACGUAGGUGGUUUUCCCCUGAUAGUGCUAAGGGGGCCUGGAAGUUUGGACUGGGCAGAGCUCAACACAGCGUGGCAAAGUGGCUGUGGCUAGACUGCCUUUCUGGGUUCCUCGUCACUCAGCAGGGCAUCUCUGAGAGAAAUGCC [C101U A107G]	1.73
UACGUAGGUGGUUUUCCCCUGAUAGUGCUAAGGGGGCCUGGAAGUUUGGACUGGGCAGAGCUCAACACAGCGUGGCAAAGUGGCUGUGGCUAGACUGCCUCAUUGGAUUCCUCGUCACUCAGCAGGGCAUCUCUGAGAGAAAUGCC [U102A C103U]	1.41
UACGUAGGUGGUUUUCCCCUGAUAGUGCUAAGGGGGCCUGGAAGUUUGGACUGGGCAGAGCUCAACACAGCGUGGCAAAGUGGCUGUGGCUAGACUGCCUCACUGGAUUCCUCGUCACUCAGCAGGGCAUCUCUGAGAGAAGUGCC [U102A A142G]	1.9
UACGUAGGUGGUUUUCCCCUGAUAGUGCUAAGGGGGCCUGGAAGUUUGGACUGGGCAGAGCUCAACACAGCGUGGCAAAGUGGCUGUGGCUAGACUGCCGCUCUGGAUUCCUCGUCACCCAGCAGGGCAUCUCUGAGAGAAAUGCC [U100G U119C]	2.45
UACGUAGGUGGUUUUCCCCUGAUAGUGCUAAGGGGGCCUGGAAGUUUGGACUGGGCAGAGCUCAACACAGCGUGGCAAAGUGGCUGUGGCUAGACUGCCUUUCUGGAUUCCUCAUCACUCAGCAGGGCAUCUCUGAGAGAAAUGCC [C101U G114A]	1.37
UACGUAGGUGGUUUUCCCCUGAUAGUGCUAAGGGGGCCUGGAAGUUUGGACUGGGCAGAGCUCAACACAGCGUGGCAAAGUGGCUGUGGCUAGACUGCCUAUCUGGAUUCCUCGUCACUCAGCAGGGCAUCUCUGAGGGAAAUGCC [C101A A138G]	1.36
UACGUAGGUGGUUUUCCCCUGAUAGUGCUAAGGGGGCCUGGAAGUUUGGACUGGGCAGAGCUCAACACAGCGUGGCAAAGUGGCUGUGGCUAGACUGCCUUUCUGGAUUCCUCGUCACUCAGCAGGGCAUCUCUGAGAUAAAUGCC [C101U G139U]	1.64
UACGUAGGUGGUUUUCCCCUGAUAGUGCUAAGGGGGCCUGGAAGUUUGGACUGGGCAGAGCUCAACACAGCGUGGCAAAGUGGCUGUGGCUAGACUGCCGCUCUGGAUUCCUCGUCACUCAGCAGGGCAUCUCUGAGAGAAGUGCC [U100G A142G]	1.01
UACGUAGGUGGUUUUCCCCUGAUAGUGCUAAGGGGGCCUGGAAGUUUGGACUGGGCAGAGCUCAACACAGCGUGGCAAAGUGGCUGUGGCUAGACUGCCUUUCUGGAUUCCUCGUCACUCAGCGGGGCAUCUCUGAGAGAAAUGCC [C101U A124G]	2.06
UACGUAGGUGGUUUUCCCCUGAUAGUGCUAAGGGGGCCUGGAAGUUUGGACUGGGCAGAGCUCAACACAGCGUGGCAAAGUGGCUGUGGCUAGACUGCCUAUCUGGAUUCCUCGUCACUCAGCAGGGCAUCUCGGAGAGAAAUGCC [C101A U134G]	1.8
UACGUAGGUGGUUUUCCCCUGAUAGUGCUAAGGGGGCCUGGAAGUUUGGACUGGGCAGAGCUCAACACAGCGUGGCAAAGUGGCUGUGGCUAGACUGCCUCACUGGAUUCCUCGUCACUCAGCAAGGCAUCUCUGAGAGAAAUGCC [U102A G125A]	1.51
UACGUAGGUGGUUUUCCCCUGAUAGUGCUAAGGGGGCCUGGAAGUUUGGACUGGGCAGAGCUCAACACAGCGUGGCAAAGUGGCUGUGGCUAGACUGCCGCUCUGGAUUCCUCGUCACUCAGCAGGGCAUCUCUGGGAGAAAUGCC [U100G A136G]	0.59
UACGUAGGUGGUUUUCCCCUGAUAGUGCUAAGGGGGCCUGGAAGUUUGGACUGGGCAGAGCUCAACACAGCGUGGCAAAGUGGCUGUGGCUAGACUGCCGCUCUGGAUUCCUCGUCACUCAGCAGGGCACCUCUGAGAGAAAUGCC [U100G U130C]	2.21
UACGUAGGUGGUUUUCCCCUGAUAGUGCUAAGGGGGCCUGGAAGUUUGGACUGGGCAGAGCUCAACACAGCGUGGCAAAGUGGCUGUGGCUAGACUGCCCCUCUGGAUUCCUCGUCACUCAGCAGGGCAUCUCAGAGAGAAAUGCC [U100C U134A]	1.83
UACGUAGGUGGUUUUCCCCUGAUAGUGCUAAGGGGGCCUGGAAGUUUGGACUGGGCAGAGCUCAACACAGCGUGGCAAAGUGGCUGUGGCUAGACUGCCCCUCUGGAUUCCUCGUCACUCAGCAGGGCAUCUCCGAGAGAAAUGCC [U100C U134C]	2.01
UACGUAGGUGGUUUUCCCCUGAUAGUGCUAAGGGGGCCUGGAAGUUUGGACUGGGCAGAGCUCAACACAGCGUGGCAAAGUGGCUGUGGCUAGACUGCCUCACUGGACUCCUCGUCACUCAGCAGGGCAUCUCUGAGAGAAAUGCC [U102A U108C]	1.14
UACGUAGGUGGUUUUCCCCUGAUAGUGCUAAGGGGGCCUGGAAGUUUGGACUGGGCAGAGCUCAACACAGCGUGGCAAAGUGGCUGUGGCUAGACUGCCGCUCUGGAUUCCUCGUCACUCAGCAGGGCAUCUCUGAGGGAAAUGCC [U100G A138G]	1.27
UACGUAGGUGGUUUUCCCCUGAUAGUGCUAAGGGGGCCUGGAAGUUUGGACUGGGCAGAGCUCAACACAGCGUGGCAAAGUGGCUGUGGCUAGACUGCCUAUCUGGAUUCCUCGACACUCAGCAGGGCAUCUCUGAGAGAAAUGCC [C101A U115A]	1.36
UACGUAGGUGGUUUUCCCCUGAUAGUGCUAAGGGGGCCUGGAAGUUUGGACUGGGCAGAGCUCAACACAGCGUGGCAAAGUGGCUGUGGCUAGACUGCCGCUCUGGAUUCCUCGUCACUCAGCAGGGCAUCUCUGAAAGAAAUGCC [U100G G137A]	0.77

Variant	self-cleavage
UACGUAGGUGGUUUUCCCCUGAUAGUGCUAAGGGGGCCUGGAAGUUUGGACUGGGCAGAGCUCAACACAGCGUGGCAAAGUGGCUGUGGCUAGACUGCCUCACUGGAUUCCUCGUCACUCUGCAGGGCAUCUCUGAGAGAAAUGCC [U102A A121U]	1.44
UACGUAGGUGGUUUUCCCCUGAUAGUGCUAAGGGGGCCUGGAAGUUUGGACUGGGCAGAGCUCAACACAGCGUGGCAAAGUGGCUGUGGCUAGACUGCCUCACUGGAUUCCUCGUCUCUCAGCAGGGCAUCUCUGAGAGAAAUGCC [U102A A117U]	1.37
UACGUAGGUGGUUUUCCCCUGAUAGUGCUAAGGGGGCCUGGAAGUUUGGACUGGGCAGAGCUCAACACAGCGUGGCAAAGUGGCUGUGGCUAGACUGCCUCACUGGAUUCCUCGUCGCUCAGCAGGGCAUCUCUGAGAGAAAUGCC [U102A A117G]	1.31
UACGUAGGUGGUUUUCCCCUGAUAGUGCUAAGGGGGCCUGGAAGUUUGGACUGGGCAGAGCUCAACACAGCGUGGCAAAGUGGCUGUGGCUAGACUGCCUCACUGGAUUCCUCAUCACUCAGCAGGGCAUCUCUGAGAGAAAUGCC [U102A G114A]	1.57
UACGUAGGUGGUUUUCCCCUGAUAGUGCUAAGGGGGCCUGGAAGUUUGGACUGGGCAGAGCUCAACACAGCGUGGCAAAGUGGCUGUGGCUAGACUGCCGCUCAGGAUUCCUCGUCACUCAGCAGGGCAUCUCUGAGAGAAAUGCC [U100G U104A]	1.17
UACGUAGGUGGUUUUCCCCUGAUAGUGCUAAGGGGGCCUGGAAGUUUGGACUGGGCAGAGCUCAACACAGCGUGGCAAAGUGGCUGUGGCUAGACUGCCUUUCUGGAUUCCUCGUCACUCAGCAGGGCAUCACUGAGAGAAAUGCC [C101U U132A]	2.01
UACGUAGGUGGUUUUCCCCUGAUAGUGCUAAGGGGGCCUGGAAGUUUGGACUGGGCAGAGCUCAACACAGCGUGGCAAAGUGGCUGUGGCUAGACUGCCUUUCUGGAUUCCUCGUCACUCAGCAGGGCACCUCUGAGAGAAAUGCC [C101U U130C]	1.54
UACGUAGGUGGUUUUCCCCUGAUAGUGCUAAGGGGGCCUGGAAGUUUGGACUGGGCAGAGCUCAACACAGCGUGGCAAAGUGGCUGUGGCUAGACUGCCUCACUGGAUUCCUCGCCACUCAGCAGGGCAUCUCUGAGAGAAAUGCC [U102A U115C]	1.88
UACGUAGGUGGUUUUCCCCUGAUAGUGCUAAGGGGGCCUGGAAGUUUGGACUGGGCAGAGCUCAACACAGCGUGGCAAAGUGGCUGUGGCUAGACUGCCUCACUGGAUUCCUCGGCACUCAGCAGGGCAUCUCUGAGAGAAAUGCC [U102A U115G]	2.51
UACGUAGGUGGUUUUCCCCUGAUAGUGCUAAGGGGGCCUGGAAGUUUGGACUGGGCAGAGCUCAACACAGCGUGGCAAAGUGGCUGUGGCUAGACUGCCUCACUGGAUUCCUCGUCACUCAGCGGGGCAUCUCUGAGAGAAAUGCC [U102A A124G]	1.08
UACGUAGGUGGUUUUCCCCUGAUAGUGCUAAGGGGGCCUGGAAGUUUGGACUGGGCAGAGCUCAACACAGCGUGGCAAAGUGGCUGUGGCUAGACUGCCGCUCUGGGUUCCUCGUCACUCAGCAGGGCAUCUCUGAGAGAAAUGCC [U100G A107G]	1.31
UACGUAGGUGGUUUUCCCCUGAUAGUGCUAAGGGGGCCUGGAAGUUUGGACUGGGCAGAGCUCAACACAGCGUGGCAAAGUGGCUGUGGCUAGACUGCCCCUCUGGAUUCCUCGUCACUCAGCAGGGCAUCUCUGAGAGAAAAGCC [U100C U143A]	1.15
UACGUAGGUGGUUUUCCCCUGAUAGUGCUAAGGGGGCCUGGAAGUUUGGACUGGGCAGAGCUCAACACAGCGUGGCAAAGUGGCUGUGGCUAGACUGCCCCUCUGGAUUCCUCGUCACUCAGCAGGGCAUCUCUGAGAGAAAGGCC [U100C U143G]	2.85
UACGUAGGUGGUUUUCCCCUGAUAGUGCUAAGGGGGCCUGGAAGUUUGGACUGGGCAGAGCUCAACACAGCGUGGCAAAGUGGCUGUGGCUAGACUGCCUUUCUGGACUCCUCGUCACUCAGCAGGGCAUCUCUGAGAGAAAUGCC [C101U U108C]	1.37
UACGUAGGUGGUUUUCCCCUGAUAGUGCUAAGGGGGCCUGGAAGUUUGGACUGGGCAGAGCUCAACACAGCGUGGCAAAGUGGCUGUGGCUAGACUGCCUCACUUGAUUCCUCGUCACUCAGCAGGGCAUCUCUGAGAGAAAUGCC [U102A G105U]	1.09
UACGUAGGUGGUUUUCCCCUGAUAGUGCUAAGGGGGCCUGGAAGUUUGGACUGGGCAGAGCUCAACACAGCGUGGCAAAGUGGCUGUGGCUAGACUGCCUCACUGGAUUCCUCGUCACUCAGCAGGGCAUCCCUGAGAGAAAUGCC [U102A U132C]	1.69
UACGUAGGUGGUUUUCCCCUGAUAGUGCUAAGGGGGCCUGGAAGUUUGGACUGGGCAGAGCUCAACACAGCGUGGCAAAGUGGCUGUGGCUAGACUGCCUUGCUGGAUUCCUCGUCACUCAGCAGGGCAUCUCUGAGAGAAAUGCC [C101U U102G]	0.3
UACGUAGGUGGUUUUCCCCUGAUAGUGCUAAGGGGGCCUGGAAGUUUGGACUGGGCAGAGCUCAACACAGCGUGGCAAAGUGGCUGUGGCUAGACUGCCUCACUGGAUUCCUCGUCACUCAGCAGGACAUCUCUGAGAGAAAUGCC [U102A G127A]	1.08
UACGUAGGUGGUUUUCCCCUGAUAGUGCUAAGGGGGCCUGGAAGUUUGGACUGGGCAGAGCUCAACACAGCGUGGCAAAGUGGCUGUGGCUAGACUGCCUCACUGGAUUCCUCGUCACUCAGCAGGGCAUCUCAGAGAGAAAUGCC [U102A U134A]	1.06
